Consider five molecules from patent US20070054332A1, “Syndecan 1 ectodomain inhibits cancer” (priority 2005, published 2007).

In assay [1] the test system is MDA-MB-231 cell spreading. The following applies: soluble ectodomain, dose-dependent; cited from earlier work.
Assay [2] relates to MDA-MB-231 human mammary carcinoma cells. In words: Rescue of proliferation in siRNA-treated cells by mouse Sdc1 constructs. In kind it is cell-based. As to conditions: MDA-MB-231, endogenous human Sdc1 silenced, mouse construct expressed. Here is the method: Full length mouse Sdc1 (FLmS1),GPI linked mS1ED (GPImS1ED) or a construct of mouse Sdc1 in which the heparan sulfate attachment sites are mutated (TDM) were stably transfected into MDA-MB-231 cells and selected with 1.5 mg/ml G418 (Gibco BRL). These stable transfectants were maintained in culture in the presence of G418 and were checked periodically for constant expression of FLmS 1, GPImS1ED or TDM. Cells expressing these transgenes at similar levels were sorted by FACS before the experiments. Cells transfected with the empty pcDNA3 vector (NEO) were used as control.
Silencing of human Sdc1 with specific short interfering RNA (siRNA). Purified, duplexed siRNAs specific for human Sdc1 were purchased from Ambion (Austin, Tex.). The siRNA sequences targeting human Sdc1 were: hsdc1-1, […]; hsdc1-2, […]; hsdc1-3, […]. […]
Assessment of Cell Growth. To quantify cell proliferation, cells grown in matrigel (3D culture) or on top of matrigel (2D culture) were released from the matrigel by 45-60 min incubation at 37° C. with Dispase (BD Biosciences), washed with Dulbecco's modified Eagle's medium (DMEM) 2-3 times and resuspended into 400 ul fresh DMEM for cell counting by hemocytometer. Triplicate wells, replicated in at least three experiments, were used for the quantification.

The subject of assay [3] is S115 mouse mammary tumor cells. As to conditions: nanomolar concentrations; Mali et al. (1994); cited from earlier work.
The next assay deals with T1, αvβ5 integrin (Mus musculus, UniProt O70309+P43406).
T1 construct: B82L mouse fibroblasts expressing this integrin; endogenous in cells; host or cells: B82L mouse fibroblasts
T1 sequence (P43406 31-1044): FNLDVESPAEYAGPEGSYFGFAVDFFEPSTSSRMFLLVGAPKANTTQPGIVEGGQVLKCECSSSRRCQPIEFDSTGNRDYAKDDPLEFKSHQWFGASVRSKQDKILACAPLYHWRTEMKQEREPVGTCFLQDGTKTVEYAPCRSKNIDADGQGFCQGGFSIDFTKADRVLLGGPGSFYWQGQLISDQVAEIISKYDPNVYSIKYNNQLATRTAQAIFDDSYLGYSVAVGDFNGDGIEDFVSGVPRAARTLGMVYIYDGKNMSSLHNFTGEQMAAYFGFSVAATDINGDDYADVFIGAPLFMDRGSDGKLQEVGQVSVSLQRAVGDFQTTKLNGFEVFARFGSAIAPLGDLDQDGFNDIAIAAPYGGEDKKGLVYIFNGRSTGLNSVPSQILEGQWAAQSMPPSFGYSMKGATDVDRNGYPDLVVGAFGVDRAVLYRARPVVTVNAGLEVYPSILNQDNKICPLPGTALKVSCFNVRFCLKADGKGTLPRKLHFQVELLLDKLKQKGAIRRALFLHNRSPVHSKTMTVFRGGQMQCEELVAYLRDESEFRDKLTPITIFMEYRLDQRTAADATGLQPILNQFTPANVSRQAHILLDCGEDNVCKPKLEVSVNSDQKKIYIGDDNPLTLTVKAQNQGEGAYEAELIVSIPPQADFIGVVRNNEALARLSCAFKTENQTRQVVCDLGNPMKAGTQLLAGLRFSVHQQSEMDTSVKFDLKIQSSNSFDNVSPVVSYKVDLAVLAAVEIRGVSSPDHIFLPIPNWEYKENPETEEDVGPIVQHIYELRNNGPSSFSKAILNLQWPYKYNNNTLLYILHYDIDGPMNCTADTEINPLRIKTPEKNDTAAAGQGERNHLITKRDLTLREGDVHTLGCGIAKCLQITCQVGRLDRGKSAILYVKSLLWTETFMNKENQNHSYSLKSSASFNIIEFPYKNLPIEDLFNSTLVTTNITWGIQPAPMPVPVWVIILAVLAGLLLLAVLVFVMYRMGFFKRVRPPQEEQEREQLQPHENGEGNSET
T1 sequence (O70309 24-798): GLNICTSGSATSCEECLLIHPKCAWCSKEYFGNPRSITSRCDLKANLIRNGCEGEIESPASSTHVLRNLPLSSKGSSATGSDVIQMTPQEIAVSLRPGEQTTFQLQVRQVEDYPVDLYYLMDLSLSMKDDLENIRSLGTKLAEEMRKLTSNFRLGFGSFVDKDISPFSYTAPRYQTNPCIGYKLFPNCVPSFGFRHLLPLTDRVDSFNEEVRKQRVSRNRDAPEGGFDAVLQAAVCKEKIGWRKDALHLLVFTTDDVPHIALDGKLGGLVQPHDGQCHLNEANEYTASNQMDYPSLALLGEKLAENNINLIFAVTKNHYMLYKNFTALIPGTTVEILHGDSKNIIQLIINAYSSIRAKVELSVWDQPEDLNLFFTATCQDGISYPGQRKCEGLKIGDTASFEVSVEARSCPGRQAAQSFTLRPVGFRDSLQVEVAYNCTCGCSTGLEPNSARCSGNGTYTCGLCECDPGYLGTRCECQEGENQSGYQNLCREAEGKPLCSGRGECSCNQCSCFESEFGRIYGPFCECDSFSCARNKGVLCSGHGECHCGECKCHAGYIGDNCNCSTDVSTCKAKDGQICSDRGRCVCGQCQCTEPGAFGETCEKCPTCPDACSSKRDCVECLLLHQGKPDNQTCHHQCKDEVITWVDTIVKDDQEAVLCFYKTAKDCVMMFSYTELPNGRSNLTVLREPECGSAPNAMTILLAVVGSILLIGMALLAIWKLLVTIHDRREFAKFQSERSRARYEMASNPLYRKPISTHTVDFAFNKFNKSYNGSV
The following applies: B82L mouse fibroblasts, competing concentrations; McQuade et al., 2006; cited from earlier work.

In assay [4] the target is T2, Sdc1 and the αvβ5 integrin complex (Mus musculus, UniProt O70309+P43406).
T2 construct: immunoprecipitation of Sdc1 from the B82L cells co-precipitates the integrin with the Sdc1; endogenous in cells; host or cells: B82L mouse fibroblasts
T2 sequence (P43406 31-1044): T1 sequence (P43406 31-1044)
T2 sequence (O70309 24-798): T1 sequence (O70309 24-798)
As to conditions: B82L cells, competing concentration; McQuade et al., 2006; cited from earlier work.

A further assay deals with MDA-MB-231 cell. The following applies: soluble ectodomain, dose-dependent; cited from earlier work.

Entries after “also recorded” stand apart in the source; their conditions may differ.

B1: soluble syndecan-4 ectodomain: soluble syndecan-4 ectodomain, specificity control (protein, UniProt P31431 19-145, looked up)
extracellular domain: ESIRETEVIDPQDLLEGRYFSGALPDDEDVVGPGQESDDFELSGSGDLDDLEDSMIGPEVVHPLVPLDNHIPERAGSGSQVPTEPKKLEENEVIPKRISPVEESEDVSNKVSMSSTVQGSNIFERTE
modifications: extracellular domain
notes: soluble syndecan-4 ectodomain, specificity control
In the case of B1, the “inhibition of MDA-MB-231 cell spreading” value in assay [1] is given as “fails to compete”.

B2: mouse Sdc1: Full length mouse Sdc1 stably transfected into MDA-MB-231 cells (protein, UniProt P18828 1-311, looked up)
chain: MRRAALWLWLCALALRLQPALPQIVAVNVPPEDQDGSGDDSDNFSGSGTGALPDTLSRQTPSTWKDVWLLTATPTAPEPTSSNTETAFTSVLPAGEKPEEGEPVLHVEAEPGFTARDKEKEVTTRPRETVQLPITQRASTVRVTTAQAAVTSHPHGGMQPGLHETSAPTAPGQPDHQPPRVEGGGTSVIKEVVEDGTANQLPAGEGSGEQDFTFETSGENTAVAAVEPGLRNQPPVDEGATGASQSLLDRKEVLGGVIAGGLVGLIFAVCLVAFMLYRMKKKDEGSYSLEEPKQANGGAYQKPTKQEEFYA
modifications: full-length
notes: Full length mouse Sdc1 stably transfected into MDA-MB-231 cells
Consider B2, for which the “rescue of proliferation in siRNA-treated cells” value in assay [2] is given as “Rescue of proliferation; also recorded: rescues proliferation”.

B3: free ectodomain: free ectodomain from culture medium of syndecan 1-transfected S115 or normal murine mammary gland cells, bearing heparan sulfate (Mali et al., 1994) (protein, UniProt P18828 23-255, looked up)
extracellular domain: QIVAVNVPPEDQDGSGDDSDNFSGSGTGALPDTLSRQTPSTWKDVWLLTATPTAPEPTSSNTETAFTSVLPAGEKPEEGEPVLHVEAEPGFTARDKEKEVTTRPRETVQLPITQRASTVRVTTAQAAVTSHPHGGMQPGLHETSAPTAPGQPDHQPPRVEGGGTSVIKEVVEDGTANQLPAGEGSGEQDFTFETSGENTAVAAVEPGLRNQPPVDEGATGASQSLLDRKEVLG
modifications: extracellular domain heparan sulfate
As to B3, the “growth of S115 tumor cells” value in assay [3] is “suppress the growth”.

B4: recombinant Sdc1 ectodomain: recombinant Sdc1 ectodomain added at competing concentrations (McQuade et al., 2006) (protein, UniProt P18828 23-255, looked up)
extracellular domain: B3 extracellular domain
modifications: extracellular domain
On to B4, for which the αvβ5 integrin activity result with αvβ5 integrin is listed as “inactivated”. In addition, in assay [4], the “co-precipitation of the integrin with Sdc1” value was “disrupted”.

B5: Soluble murine Sdc1 ectodomain: soluble murine Sdc1 ectodomain (Beauvais and Rapraeger, 2003) (protein, UniProt P18828 23-255, looked up)
extracellular domain: B3 extracellular domain
modifications: extracellular domain
In the case of B5, the “inhibition of MDA-MB-231 cell spreading” value in assay [1] is given as “competitively inhibits”. Also, the “inhibition in short-term migration assays” value in the assay with MDA-MB-231 cell was “competitively inhibits”.
